Results from patent publication US20210032320A1.

Legend:
[1] = molecular target: NKp44 isoform 1 (NKp44-1) on NK92-44-1 cells (Homo sapiens (Human)) (UniProt O95944); assay: cell-based or functional assay
[2] = molecular target: NKp44 isoform 2 (NKp44-2) on NK92-44-2 cells (UniProt O95944); assay: cell-based or functional assay
[3] = molecular target: NKp44 isoform 3 (NKp44-3) on NK92-44-3 cells (UniProt O95944); assay: cell-based or functional assay
[4] = molecular target: endogenous cellular PCNA (cell lysates, permeabilised cells, FFPE tissue) (human) (UniProt P12004); assay: image stream of HeLa cells, similarity of the AF488 antibody stain to the 7AAD nuclear stain; 190 of 3950 cells
Sequence of UniProt P12004 (P12004 whole entry): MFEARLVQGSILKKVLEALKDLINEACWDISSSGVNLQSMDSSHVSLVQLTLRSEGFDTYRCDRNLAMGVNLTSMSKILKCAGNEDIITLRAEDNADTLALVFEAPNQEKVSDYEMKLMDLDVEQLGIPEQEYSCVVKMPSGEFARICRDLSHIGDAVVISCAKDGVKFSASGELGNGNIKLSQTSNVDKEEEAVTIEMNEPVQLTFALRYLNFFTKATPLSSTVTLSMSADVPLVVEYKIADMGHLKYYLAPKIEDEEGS

Substance	relative amount of F-actin accumulating at the immune synapse [1] [%]	relative amount of F-actin accumulating at the immune synapse [2] [%]	relative amount of F-actin accumulating at the immune synapse [3] [%]	%Gated in the gate 'Cytoplasmic PCNA' [4] [%]
PCNA over-expressed in HeLa target cells (from UniProt P12004 1-261)	-22.6	6.9	4.6	–
commercial anti PCNA mAb clone PC10 (antibody)	–	–	–	4.81
